We go through 1 protein from publication PMC7905944 (Science signaling, 2020).

This data set deals with the molecule itself. The data set is described as follows: cross-linking.

The stoichiometry N is the number of molecules, sites or subunits per partner or assembly.

B1: endogenous LGR5 of LoVo cells (receptor, human (endogenous in LoVo), UniProt O75473 22-907, looked up)
chain: GSSPRSGVLLRGCPTHCHCEPDGRMLLRVDCSDLGLSELPSNLSVFTSYLDLSMNNISQLLPNPLPSLRFLEELRLAGNALTYIPKGAFTGLYSLKVLMLQNNQLRHVPTEALQNLRSLQSLRLDANHISYVPPSCFSGLHSLRHLWLDDNALTEIPVQAFRSLSALQAMTLALNKIHHIPDYAFGNLSSLVVLHLHNNRIHSLGKKCFDGLHSLETLDLNYNNLDEFPTAIRTLSNLKELGFHSNNIRSIPEKAFVGNPSLITIHFYDNPIQFVGRSAFQHLPELRTLTLNGASQITEFPDLTGTANLESLTLTGAQISSLPQTVCNQLPNLQVLDLSYNLLEDLPSFSVCQKLQKIDLRHNEIYEIKVDTFQQLLSLRSLNLAWNKIAIIHPNAFSTLPSLIKLDLSSNLLSSFPITGLHGLTHLKLTGNHALQSLISSENFPELKVIEMPYAYQCCAFGVCENAYKISNQWNKGDNSSMDDLHKKDAGMFQAQDERDLEDFLLDFEEDLKALHSVQCSPSPGPFKPCEHLLDGWLIRIGVWTIAVLALTCNALVTSTVFRSPLYISPIKLLIGVIAAVNMLTGVSSAVLAGVDAFTFGSFARHGAWWENGVGCHVIGFLSIFASESSVFLLTLAALERGFSVKYSAKFETKAPFSSLKVIILLCALLALTMAAVPLLGGSKYGASPLCLPLPFGEPSTMGYMVALILLNSLCFLMMTIAYTKLYCNLDKGDLENIWDCSMVKHIALLLFTNCILNCPVAFLSFSSLINLTFISPEVIKFILLVVVPLPACLNPLLYILFNPHFKEDLVSLRKQTYVWTRSKHPSLMSINSDDVEKQSCDSTQALVTFTSSSITYDLPPSSVPSPAYPVTESCHLSSVAFVPCL
Turning to B1, the “stoichiometry N” value was 2.
